Substitutions are numbered along the chain they refer to.
Tests used:
[1] = target: T1, Histidine-tagged INT-interacting MVP domains (His-iMVP), major vault protein domains 3 to 5; test: SPR; Biacore 3000, His-iMVP immobilised on CM5 (1010 RU), His-INT/DSA/3H injected at 0.12, 0.25 or 0.5 μM, 25 °C, pH 6.0; apparent constants; conditions: both partners purified
T1 construct: major vault protein (MVP), domains 3, 4 and 5 including the gap between domains 2 and 3, residues 102-276, PCR-amplified from the CP-MVP gene; numbers count on: PDB 2QZV; Cloned NdeI/BamHI in pET-28a; also called MVP domains 3 to 5; source: E. coli BL21(DE3), purified (HisTrap HP; SEC for SPR); not shown: His6, N-terminal, kept

[2] = target: T1, Histidine-tagged INT-interacting MVP …; test: SPR; Biacore 3000, His-iMVP amine-coupled to CM5 (410, 1860 or 1240 RU), His-INT or variant injected, 25 °C, 50 mM PBS, 150 mM NaCl, pH 7.4; 1-to-1 Langmuir fit; apparent constants; conditions: both partners purified
[3] = target: the molecule itself; test: SEC; His-INT alone at 0.05, 0.01 and 0.005 mM on Superdex 75 10/300 GL; dimer (D) and monomer (M) peaks; dimer to monomers

B1: His-INT/DSA/3H (His-INT with histidines substituted at the interaction surface) (domain or fragment)
chain: CIQHWQDAVPWTELLSLQTEDGFWKLTPELGLILNLNTNGLHSFLKQKGIQSLGVKGRECLLDLIATMLVLQFIRTRLEKEGIVFKSLMKMDDASISRNIPWAFEAIKQASEWVRRTEGQYPSICPRLELGNHWDHHTKQLLGLQPISTVSPLHRVLHYSQG
Kd [1]: 24 nM
koff [1]: 0.000258 s⁻¹
kon [1]: 10800 M⁻¹ s⁻¹
Kd [2]: 90 nM
koff [2]: 0.00134 s⁻¹
kon [2]: 14900 M⁻¹ s⁻¹

B2: Histidine-tagged vault-interacting domain of vault poly(ADP-ribose)-polymerase (His-INT) (domain or fragment, UniProt Q9UKK3 1563-1724, looked up)
chain: B1 chain with H133D, H136S, H137A
notes: vault poly(ADP-ribose)-polymerase (VPARP), C-terminal INT domain, residues 1563-1724 of GenBank AF158255; Cloned NdeI/XhoI in pET-28a; Monomer and dimer in equilibrium; also called wild-type INT; full-length His-INT; source: E. coli BL21(DE3), purified (HisTrap HP, SEC; M fraction used); not shown: His6, N-terminal, kept
stoichiometry N [3]: 2

Reference: article PMC5665922, “Modulation of the Vault Protein-Protein Interaction for Tuning of Molecular Release” (Scientific Reports, 2017)
